According to US20250064956A1, “METHODS FOR TREATING MUSCLE INVASIVE UROTHELIAL CANCER OR MUSCLE INVASIVE BLADDER CANCER WITH ANTIBODY DRUG CONJUGATES (ADC) THAT BIND TO 191P4D12 PROTEINS” (AGENSYS, INC., priority 2022, published 2025):

What was measured:
[1] = test system: acute myeloid leukemia (AML) at relapse; conditions: administered alone; cited from earlier work
[2] = test system: cisplatin-ineligible patients with T2 T4N0M0 MIBC; conditions: cited from earlier work
[3] = test system: urothelial carcinoma subjects; test: Enfortumab vedotin monotherapy studies of urothelial carcinoma, SAEs of severe cutaneous adverse reactions; format: in vivo, human
[4] = test system: patients receiving enfortumab vedotin; test: Reports of severe cutaneous adverse reactions in patients receiving enfortumab vedotin; format: in vivo, human
Text: These reactions occurred predominantly during the first cycle of treatment. AEs reported in these cases included Stevens-Johnson Syndrome (SJS) (5 cases), blister (3 cases), dermatitis bullous (3 cases), symmetrical drug-related intertriginous and flexural exanthema (SDRIFE; 2 cases), and 1 case each of dermatitis exfoliative, exfoliative rash, epidermal necrosis, oropharyngeal blistering, stomatitis, and toxic epidermal necrolysis (TEN).

[5] = test system: cisplatin-ineligible patients with muscle invasive bladder cancer (MIBC); test: Phase 1b/2 study (Cohort H): safety, tolerability, exposure and disposition with neoadjuvant EV monotherapy and RC+PLND; format: in vivo, human
Text: Safety assessments are based on the information collected through the safety surveillance process and will include the data from recorded AEs, including serious adverse events (SAEs), concomitant medications, physical examination findings, cardiac monitoring, and laboratory tests. Safety is monitored over the course of the study by the SMC.
The safety analysis evaluates the type, incidence, severity, seriousness, and relatedness of AEs, and the type, incidence, and severity of laboratory abnormalities. The incidence, duration, and resolution of AEs of special interest (AESIs) are summarized.
The assessment of safety during the course of this study will consist of the surveillance and recording of AEs including SAEs, recording of concomitant medication, and measurements of protocol-specified physical examination findings, cardiac monitoring, and laboratory tests.
AE severity should be graded using the National Cancer Institute's Common Terminology Criteria for Adverse Events (NCI CTCAE), Version 4.03.
An overview of AEs provide a tabulation, by cohort and overall, of the incidence of all AEs, TEAEs, treatment-related AEs, Grade 3 and higher AEs, SAEs, treatment-related SAEs, deaths, and AEs leading to study treatment discontinuation. AEs are defined as treatment emergent if they are newly occurring or worsen following study treatment.
AEs are listed and summarized by Medical Dictionary for Regulatory Activities (MedDRA), preferred term, severity, and relationship to study drug. In the event of multiple occurrences of the same AE with the same preferred term in 1 patient, the AE are counted once as the occurrence. The incidence of AEs are tabulated by preferred term and cohorts. AEs leading to premature discontinuation of study drug are summarized and listed in the same manner.
(§1) The methods for this Section 6.2 (Example 2) were as described in Section 6.1 (Example 1). […] Patients received 3 cycles of neoadjuvant EV (1.25 mg/kg) on Days 1 and 8 of every 3-week cycle prior to RC+PLND. The primary endpoint of the study was pathological complete response rate (pCRR; ypT0N0) by central review. Key secondary endpoints included pathological downstaging (pDS) rate (yp T0, Tis, Ta, T1,N0) and safety.

[6] = test system: cisplatin-ineligible patients with muscle invasive bladder cancer (MIBC); test: Phase 1b/2 study (Cohort H): neoadjuvant EV monotherapy followed by RC+PLND, antitumor activity (pCR, pDS, EFS); format: in vivo, human
Protocol: Treatment with enfortumab vedotin monotherapy is evaluated in patients with MIBC. This study enrolls approximately 20 patients with cT2-T4aN0M0 MIBC.
pCR is the primary endpoint and is defined as the absence of viable tumor (pT0N0) in examined tissue from RC+PLND. pCR is assessed by central pathology review after RC+PLND with curative intent. Post-RC restaging is performed via the same radiologic modalities at the first follow-up disease assessment scan (12 weeks after RC+PLND). During the first 2 years on study, follow-up is performed every 12 weeks (±14 days) from RC+PLND until disease progression/recurrence, patient death study closure, or withdrawal of consent, whichever occurs first. After 2 years on study, the frequency of visits including response assessments is reduced to every 24 weeks (±14 days). Tumor imaging should also be performed whenever disease progression is suspected.
Radiographic disease progression precluding a curative intent surgery noted prior to RC+PLND, failure to undergo RC+PLND for patients with residual muscle invasive disease and/or any radiographic disease present, gross residual disease left behind at time of RC+PLND, local or distant recurrence post-RC as assessed radiographically and/or confirmed with biopsy (local pathology review), or death from any cause are considered EFS events. Patients who are found to have EFS events but are still alive are to transition into long-term follow-up.
Tumor tissue samples collected from the patient's diagnostic TURBT within 90 days prior to the first dose of study treatment are sent for central pathology review. Tissue samples from RC+PLND will also be sent for central pathology review of pathologic response assessment. Tumor response is assessed after RC+PLND with curative intent by pathology review analysis. Pathologic staging information includes TNM classification, histology, lymph node counts, and surgical margins.
The pCRR is defined as the proportion of patients having pCR. pCR is defined as the absence of viable tumor (pT0N0) in examined tissue from RC+PLND.
pDSR is defined as the proportion of patients having pDS. pDS is defined as patients with <pT2 (includes pT0, pTis, pTa, pT1) and N0 in examined tissue from RC+PLND.
EFS is defined as the time from the start of study treatment to the first occurrence of any of the following events: • Radiographic disease progression precluding a curative intent surgery prior to RC+PLND • Failure to undergo RC+PLND for participants with residual muscle-invasive disease and/or any radiographic disease present • Gross residual disease left behind at time of RC+PLND (surgeon unable to complete curative intent surgery due to unresectable tumor or newly discovered metastatic disease) • Local or distant recurrence post-RC as assessed by CT or MRI and/or biopsy. If biopsy is not feasible due to participant safety, CT/MRI alone is sufficient • Death from any cause
Patients who refuse surgery but without a post-screening scan are censored at study day 1.
as §1

[7] = test system: patients with T2 T3bN0M0 MIBC; conditions: cited from earlier work
[8] = 2 cycles of 1200 mg prior to RC, 69 patients
[9] = 2 cycles of 1200 mg prior to RC
[10] = EFS by investigator assessment, EV Mono N = 22
[11] = Present study, cisplatin ineligible, EV monotherapy x 3 cycles, sample size 22
[12] = by investigator assessment, N = 22

CT-011
response in treating acute myeloid leukemia (AML) at relapse [1]: failed to show response

atezolizumab
pCR, patients [2, 8]: 29% | safety findings [2, 8]: no significant safety findings | pCR, PD-L1-negative cohort [2, 9]: 16% | pCR, patients with PD-L1-positive disease [2, 9]: 40% | patients down staged to non-muscle invasive disease [2, 9]: 39% | PCR (no viable tumor at surgery), ypT0 + ypTis ([2]; ABACUS, cisplatin ineligible, Atezolizumab x 2, sample size 88): 31% (ypT0 +

enfortumab vedotin
SAE of severe cutaneous adverse reaction: SJS ([3]; 749 subjects): 0.1% | SAE of severe cutaneous adverse reaction: blister ([3]; 749 subjects): 0.1% | SAE of severe cutaneous adverse reaction: conjunctivitis ([3]; 749 subjects): 0.1% | SAE of severe cutaneous adverse reaction: dermatitis bullous ([3]; 749 subjects): 0.4% | SAE of severe cutaneous adverse reaction: drug eruption ([3]; 749 subjects): 0.4% | SAE of severe cutaneous adverse reaction: stomatitis ([3]; 749 subjects): 0.1% | SAE of severe cutaneous adverse reaction: toxic skin eruption ([3]; 749 subjects): 0.1% | SAEs of severe cutaneous adverse reactions ([3]; 749 subjects): 1.5% | SAEs of severe cutaneous adverse reactions ([3]; of 749 subjects, EV monotherapy studies of urothelial carcinoma): 11 subjects | severe cutaneous adverse reaction reports: SDRIFE ([4]; 15 patients): 2 cases | severe cutaneous adverse reaction reports: Stevens-Johnson Syndrome (SJS) ([4]; 15 patients): 5 cases | severe cutaneous adverse reaction reports: blister ([4]; 15 patients): 3 cases | severe cutaneous adverse reaction reports: dermatitis bullous ([4]; 15 patients): 3 cases | severe cutaneous adverse reaction reports: dermatitis exfoliative ([4]; 15 patients): 1 case | severe cutaneous adverse reaction reports: epidermal necrosis ([4]; 15 patients): 1 case | severe cutaneous adverse reaction reports: exfoliative rash ([4]; 15 patients): 1 case | severe cutaneous adverse reaction reports: oropharyngeal blistering ([4]; 15 patients): 1 case | severe cutaneous adverse reaction reports: stomatitis ([4]; 15 patients): 1 case | severe cutaneous adverse reaction reports: toxic epidermal necrolysis (TEN) ([4]; 15 patients): 1 case | patients with reports of severe cutaneous adverse reactions ([4]; some had fatal outcomes, predominantly during the first cycle): 15 patients

enfortumab vedotin [EV Mono]
AECI Any infusion related reactions, ≥Grade 3 ([5]; EV Mono N = 22): 0 n | AECI Any ocular disorder: Blurred vision, ≥Grade 3 ([5]; EV Mono N = 22): 0 n | AECI Any ocular disorder: Corneal disorders, Any Grade ([5]; EV Mono N = 22): 0 n | AECI Any ocular disorder: Corneal disorders, ≥Grade 3 ([5]; EV Mono N = 22): 0 n | AECI Any ocular disorder: Dry eye, ≥Grade 3 ([5]; EV Mono N = 22): 0 n | AECI Any peripheral neuropathy, ≥Grade 3 ([5]; EV Mono N = 22): 0 n | Any TEAEs leading to bladder surgery not performed ([5]; EV Mono N = 22): 0 n | EV-related TEAEs leading to bladder surgery not performed ([5]; EV Mono N = 22): 0 n | EV-related TEAEs leading to death ([5]; EV Mono N = 22): 0 n | RC-related TEAEs leading to death ([5]; EV Mono N = 22): 0 n | TEAE (Table 27) Hyperglycaemia ([5]; EV Mono N = 22, listed as EV): 13.6% | TEAE (Table 27) Small intestinal obstruction ([5]; EV Mono N = 22, listed as EV): 9.1% | TEAE (Table 27) Urinary tract infection ([5]; EV Mono N = 22, listed as EV): 9.1% | patients with Grade 3 or higher TEAEs ([5]; EV monotherapy and RC+PLND): 59.1% | tolerability of 3 cycles of neoadjuvant treatment ([5]; cisplatin-ineligible MIBC patients): well-tolerated | Grade 5 AE Acute Kidney Injury: Days from RC + PLND ([5]; in vivo): 62 days | Grade 5 AE Acute Kidney Injury: Days from last dose of EV ([5]; in vivo): 142 days | Grade 5 AE Cardiac Arrest: Days from RC + PLND ([5]; in vivo): 15 days | Grade 5 AE Cardiac Arrest: Days from last dose of EV ([5]; in vivo): 45 days | Grade 5 AE Saddle PE: Days from RC + PLND ([5]; in vivo): 55 days | Grade 5 AE Saddle PE: Days from last dose of EV ([5]; in vivo): 127 days | patients whose grade 5 AEs occurred >30 days after the end of study treatment ([5]; in vivo): 2 pts | patients with grade 5 adverse events while on the study ([5]; in vivo): 3 patients | observed safety profile of neoadjuvant EV monotherapy ([5]; patients in this study): consistent with the known safety profile of EV | Rash maculo-papular leading to EV discontinuation: AE onset after last EV dose ([5]; subject completed Cycle 2, Gr3): ^cSubject completed Cycle 2. AE onset occurred 4 days after last EV dose. (Gr3) | pathological complete response (pCR), patients ([6]; 3 cycles neoadjuvant EV 1.25 mg/kg Days 1 and 8 of 3-week cycle, preliminary analysis of 22 patients): 36% | Number of subjects who have recurrence or died [6, 10]: 5 | Subjects who have recurrence or died, figure in parentheses (share of N = 22) [6, 10]: (22.7) | PCR (no viable tumor at surgery), ypT0 and ypTis [6, 11]: 45.5% (ypT0 | PCR (no viable tumor at surgery), ypT0 only [6, 11]: 32% (ypT0 | pDS (non-muscle invasive disease at surgery), includes pCR [6, 11]: 50% (includes | EFS Rate at 6 months [6, 12]: 88.2% | Event free-survival (EFS), 25th percentile [6, 12]: 6.7, — months | Event free-survival (EFS), median [6, 12]: not reached | Event free-survival (EFS), observed min [6, 12]: 2.60 months | Event free-survival (EFS), observed max ([6]; by investigator assessment, N = 22, + printed after value): ≥ 12.32 months | EFS Rate at 12 months ([6]; by investigator assessment, N = 22, one subject censored at study day 190 due to a data issue): 60.5% | pCRR compared with rates seen with chemotherapy in cisplatin-eligible MIUC patients ([6]; cisplatin-ineligible MIBC patients, neoadjuvant EV): compares favorably

pembrolizumab
pCR rate ([7]; 3 cycles of 200 mg before RC, among 50 treated patients): 42% | pCR rate in patients with PD L1 positive disease ([7]; 3 cycles of 200 mg before RC): 54.3% | pathologic downstaging rate ([7]; 3 cycles of 200 mg before RC): 65.7% | safety of neoadjuvant administration ([7]; 3 cycles of 200 mg before RC): safely administered | pDS (non-muscle invasive disease at surgery), includes pCR ([7]; PURE-01, Pembrolizumab x 3, sample size 50): 54% (includes | PCR (no viable tumor at surgery) ([7]; PURE-01, cisplatin eligible (n = 42) and ineligible (n = 8), Pembrolizumab x 3, sample size 50): 42%
